Assay results: publication PMC7644011

Test system: rituximab (MabThera, anti-CD20 chimeric mouse/human IgG1) (chimeric mouse/human)
Experiment: ELASA
Settings: 80°C 1 min; ELASA on protein A plates, antibody 4 ug/ml; aptamers folded in 20 mM Tris pH 7.6, 100 mM NaCl, 2 mM MgCl2, 5 mM KCl, 1 mM CaCl2, 0.02% Tween 20, then diluted …

| Sequence | Kd [nM] |
| --- | --- |
| ACTTCGGCTAGTTAGGGGGTAGTTTAGATCGTCTCTACAT [C10] | 17.6 |
| GGCCATTGTGGACTTCTTTGGGTAATTCAGGGGCTCGATT [C7] | 8.8 |
